Data: patent US20220267464A1 (Hoffmann-La Roche, published 2022)
Substitutions are numbered along the chain they refer to. In names and notes the source's numbering stands.

B1: P1AE3113 (antibody, IgG1, V domains shown)
VH: QVQLVQSGAEVKKPGASVKVSCKASGFNIKDSYMHWVRQAPGQGLEWMGWIDPENGDTEYAPKFQGRVTMTTDTSISTAYMELSRLRSDDTAVYYCNEGTPTGPYYFDYWGQGTLVTVSS
VL: EIQMTQSPSSLSASVGDRVTITCRASQSISSYMHWYQQKPGKAPKLLIYSTSNLASGVPSRFSGSGSGTDFTLTISSLQPEDFATYYCQQRSSYPLTFGGGTKLEIK
notes: huIgG1 P329G LALA; also called MFE-H24 / MFE-L26
B2: P1AE3107 (antibody, IgG1, V domains shown)
VH: B1 VH
VL: EIQMTQSPSSLSASVGDRVTITCRASSSVPYMHWYQQKPGKAPKLLIYSTSNLASGVPSRFSGSGSGTDFTLTISSVQPEDFATYYCQQRSSYPLTFGGGTKLEIK
notes: huIgG1 P329G LALA; also called MFE-H24 / MFE-L27; huMFE23-L27-H24
B3: P1AE3103 (antibody, IgG1, V domains shown)
VH: B1 VH with T72R
VL: B2 VL
notes: huIgG1 P329G LALA; also called MFE-H28 / MFE-L27; huMFE23-L27-H28
B4: P1AE3117 (antibody, IgG1, V domains shown)
VH: B1 VH with D57G, E59N, P62Q
VL: B2 VL with P30S, V77L
notes: huIgG1 P329G LALA; also called MFE-H26 / MFE-L25
B5: P1AE3094 (antibody, IgG1, V domains shown)
VH: B1 VH with F27Y, N28T, I29F
VL: B2 VL with Y35L, N52S, A54Q
notes: huIgG1 P329G LALA; also called MFE-H25 / MFE-L29
B6: P1AE3115 (antibody, IgG1, V domains shown)
VH: B1 VH with T72R
VL: B2 VL with P30S, V77L
notes: huIgG1 P329G LALA; also called MFE-H28 / MFE-L25
B7: P1AE3095 (antibody, IgG1, V domains shown)
VH: B1 VH
VL: B2 VL with Y35L, N52S, A54Q
notes: huIgG1 P329G LALA; also called MFE-H24 / MFE-L29
B8: P1AE3110 (antibody, IgG1, V domains shown)
VH: B1 VH with N97A, E98R
VL: B1 VL
notes: huIgG1 P329G LALA; also called MFE-H27 / MFE-L26
B9: P1AE3121 (antibody, IgG1, V domains shown)
VH: B1 VH with T72R
VL: B2 VL with E1D, P30S, V77L
notes: huIgG1 P329G LALA; also called MFE-H28 / MFE-L24
B10: P1AE3118 (antibody, IgG1, V domains shown)
VH: B1 VH with F27Y, N28T, I29F
VL: B2 VL with P30S, V77L
notes: huIgG1 P329G LALA; also called MFE-H25 / MFE-L25
B11: P1AE3114 (antibody, IgG1, V domains shown)
VH: B1 VH with A16S, M70I, T74E, I76T, R85S, D89E
VL: B2 VL with P30S, V77L
notes: huIgG1 P329G LALA; also called MFE-H29 / MFE-L25
B12: P1AE3101 (antibody, IgG1, V domains shown)
VH: B1 VH
VL: B2 VL with Y35L
notes: huIgG1 P329G LALA; also called MFE-H24 / MFE-L28; huMFE23-L28-H24
B13: P1AE3099 (antibody, IgG1, V domains shown)
VH: B1 VH with D57G, E59N, P62Q
VL: B2 VL with Y35L
notes: huIgG1 P329G LALA; also called MFE-H26 / MFE-L28
B14: P1AE3093 (antibody, IgG1, V domains shown)
VH: B1 VH with D57G, E59N, P62Q
VL: B2 VL with Y35L, N52S, A54Q
notes: huIgG1 P329G LALA; also called MFE-H26 / MFE-L29
B15: P1AE3112 (antibody, IgG1, V domains shown)
VH: B1 VH with F27Y, N28T, I29F
VL: B1 VL
notes: huIgG1 P329G LALA; also called MFE-H25 / MFE-L26
B16: P1AE3111 (antibody, IgG1, V domains shown)
VH: B1 VH with D57G, E59N, P62Q
VL: B1 VL
notes: huIgG1 P329G LALA; also called MFE-H26 / MFE-L26
B17: P1AE3098 (antibody, IgG1, V domains shown)
VH: B1 VH with N97A, E98R
VL: B2 VL with Y35L
notes: huIgG1 P329G LALA; also called MFE-H27 / MFE-L28
B18: P1AE3108 (antibody, IgG1, V domains shown)
VH: B1 VH with A16S, M70I, T74E, I76T, R85S, D89E
VL: B1 VL
notes: huIgG1 P329G LALA; also called MFE-H29 / MFE-L26
B19: P1AE3104 (antibody, IgG1, V domains shown)
VH: B1 VH with N97A, E98R
VL: B2 VL
notes: huIgG1 P329G LALA; also called MFE-H27 / MFE-L27
B20: P1AE3105 (antibody, IgG1, V domains shown)
VH: B1 VH with D57G, E59N, P62Q
VL: B2 VL
notes: huIgG1 P329G LALA; also called MFE-H26 / MFE-L27; huMFE23-L27-H26
B21: P1AE3090 (antibody, IgG1, V domains shown)
VH: B1 VH with A16S, M70I, T74E, I76T, R85S, D89E
VL: B2 VL with Y35L, N52S, A54Q
notes: huIgG1 P329G LALA; also called MFE-H29 / MFE-L29
B22: P1AE3109 (antibody, IgG1, V domains shown)
VH: B1 VH with T72R
VL: B1 VL
notes: huIgG1 P329G LALA; also called MFE-H28 / MFE-L26
B23: P1AE3096 (antibody, IgG1, V domains shown)
VH: B1 VH with A16S, M70I, T74E, I76T, R85S, D89E
VL: B2 VL with Y35L
notes: huIgG1 P329G LALA; also called MFE-H29 / MFE-L28
B24: P1AE3097 (antibody, IgG1, V domains shown)
VH: B1 VH with T72R
VL: B2 VL with Y35L
notes: huIgG1 P329G LALA; also called MFE-H28 / MFE-L28; huMFE23-L28-H28
B25: P1AE3120 (antibody, IgG1, V domains shown)
VH: B1 VH with A16S, M70I, T74E, I76T, R85S, D89E
VL: B2 VL with E1D, P30S, V77L
notes: huIgG1 P329G LALA; also called MFE-H29 / MFE-L24
B26: P1AE3092 (antibody, IgG1, V domains shown)
VH: B1 VH with N97A, E98R
VL: B2 VL with Y35L, N52S, A54Q
notes: huIgG1 P329G LALA; also called MFE-H27 / MFE-L29
B27: P1AE3102 (antibody, IgG1, V domains shown)
VH: B1 VH with A16S, M70I, T74E, I76T, R85S, D89E
VL: B2 VL
notes: huIgG1 P329G LALA; also called MFE-H29 / MFE-L27; huMFE23-L27-H29
B28: P1AE3091 (antibody, IgG1, V domains shown)
VH: B1 VH with T72R
VL: B2 VL with Y35L, N52S, A54Q
notes: huIgG1 P329G LALA; also called MFE-H28 / MFE-L29
B29: P1AE3100 (antibody, IgG1, V domains shown)
VH: B1 VH with F27Y, N28T, I29F
VL: B2 VL with Y35L
notes: huIgG1 P329G LALA; also called MFE-H25 / MFE-L28; huMFE23-L28-H25
B30: P1AE3119 (antibody, IgG1, V domains shown)
VH: B1 VH
VL: B2 VL with P30S, V77L
notes: huIgG1 P329G LALA; also called MFE-H24 / MFE-L25
B31: P1AE3116 (antibody, IgG1, V domains shown)
VH: B1 VH with N97A, E98R
VL: B2 VL with P30S, V77L
notes: huIgG1 P329G LALA; also called MFE-H27 / MFE-L25
B32: P1AE3106 (antibody, IgG1, V domains shown)
VH: B1 VH with F27Y, N28T, I29F
VL: B2 VL
notes: huIgG1 P329G LALA; also called MFE-H25 / MFE-L27
B33: P1AE0096-001 MFE23 huIgG1 PG LALA (parental) (antibody, V domains shown)
VH: QVKLQQSGAELVRSGTSVKLSCTASGFNIKDSYMHWLRQGPEQGLEWIGWIDPENGDTEYAPKFQGKATFTTDTSSNTAYLQLSSLTSEDTAVYYCNEGTPTGPYYFDYWGQGTTVTVSS
VL: ENVLTQSPAIMSASPGEKVTITCSASSSVSYMHWFQQKPGTSPKLWIYSTSNLASGVPARFSGSGSGTSYSLTISRMEAEDAATYYCQQRSSYPLTFGAGTKLELK
notes: murine variable domains on huIgG1 P329G L234A L235A; also called parental murine MFE23 huIgG1 P329G LALA antibody

Key:
[1] = molecular target: T1, human CEACAM5 (carcinoembryonic antigen, CEA) on cells (human, UniProt P06731 35-685); test: flow cytometry, MKN45 cells; design: AUC: unit not given beside the values
T1 construct: endogenous on MKN45 gastric adenocarcinoma cells; full-length cDNA stably transfected in the CHO-K1 clones; also called huCEACAM5; MKN45 cells
T1 sequence: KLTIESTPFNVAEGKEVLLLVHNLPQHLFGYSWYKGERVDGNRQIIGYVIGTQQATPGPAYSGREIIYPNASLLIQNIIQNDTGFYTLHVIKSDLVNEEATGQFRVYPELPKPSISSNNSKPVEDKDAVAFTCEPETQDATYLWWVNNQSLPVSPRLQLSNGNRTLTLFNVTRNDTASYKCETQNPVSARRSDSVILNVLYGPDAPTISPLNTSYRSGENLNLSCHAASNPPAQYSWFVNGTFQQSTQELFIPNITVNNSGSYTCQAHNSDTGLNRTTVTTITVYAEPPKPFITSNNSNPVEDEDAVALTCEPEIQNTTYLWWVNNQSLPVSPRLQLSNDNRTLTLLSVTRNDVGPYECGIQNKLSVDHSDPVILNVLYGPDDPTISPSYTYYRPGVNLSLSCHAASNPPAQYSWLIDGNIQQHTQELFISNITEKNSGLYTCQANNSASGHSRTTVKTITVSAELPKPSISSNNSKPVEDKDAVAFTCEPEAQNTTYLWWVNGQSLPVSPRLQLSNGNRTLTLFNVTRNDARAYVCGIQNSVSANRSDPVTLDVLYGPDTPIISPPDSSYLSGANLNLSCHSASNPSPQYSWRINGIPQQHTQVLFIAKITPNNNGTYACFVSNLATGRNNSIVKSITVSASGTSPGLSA

[2] = molecular target: T1, human CEACAM5 (carcinoembryonic …); test: flow cytometry, MKN-45 cells, goat F(ab')2 anti-human Fcγ-PE, gMFI

Binder	AUC [1]	binding result [2]	EC50 [1]
B1	757	no binding (tested: about 300 nM)	–
B2	91200	–	5.83 nM
B3	92400	–	5.88 nM
B4	1180	no binding (tested: about 300 nM)	–
B5	6910	–	47.6 nM
B6	10200	–	20.7 nM
B7	84900	–	11.1 nM
B8	547	no binding (tested: about 300 nM)	–
B9	17500	–	17.1 nM
B10	559	no binding (tested: about 300 nM)	–
B11	12800	–	30.6 nM
B12	104000	–	6.58 nM
B13	95300	–	10.2 nM
B14	68100	–	16.1 nM
B15	551	no binding (tested: about 300 nM)	–
B16	578	no binding (tested: about 300 nM)	–
B17	1190	no binding (tested: about 300 nM)	–

Binder	AUC [1]	binding result [2]	EC50 [1]
B18	2090	no binding (tested: about 300 nM)	–
B19	414	no binding (tested: about 300 nM)	–
B20	55900	–	7.92 nM
B21	61800	–	42 nM
B22	695	no binding (tested: about 300 nM)	–
B23	87800	–	10.5 nM
B24	98700	–	6.45 nM
B25	24200	–	12.4 nM
B26	482	no binding (tested: about 300 nM)	–
B27	91500	–	5.41 nM
B28	83100	–	14.6 nM
B29	74100	–	9.89 nM
B30	10300	–	41.9 nM
B31	443	no binding (tested: about 300 nM)	–
B32	1130	no binding (tested: about 300 nM)	–
B33	83500	–	9.36 nM
